Measured values taken from US9266964.
Substitutions are numbered along the chain they refer to. Where two headings read alike, the source gives them in different places. Each block holds one binder with its values, some of them ahead of it.

Key:
mouse plasma kallikrein [1] = molecular target: T1, mouse plasma kallikrein (mouse, UniProt P26262 20-638, limits assumed); assay: apparent inhibition constant (Ki,app) from enzyme inhibition of rodent pKal
T1 construct: also called mouse pKal; rodent pKal

human plasma kallikrein [2] = molecular target: T2, human plasma kallikrein (human, UniProt P03952 20-390; P03952 391-638); assay: apparent inhibition constant (Ki,app) from enzyme inhibition of human pKal; IgG
T2 construct: two disulfide-linked chains; also called pKal; human pKal

human plasma kallikrein [3] = molecular target: T3, human plasma kallikrein (human, UniProt P03952 20-390; P03952 391-638); assay: Ki,app, enzyme inhibition of pKal; antibody format not stated
T3 construct: two disulfide linked chains; also called pKal; human pKal

[4] = molecular target: T4, human plasma kallikrein (active form) (human, UniProt P03952 20-390; P03952 391-638); assay: apparent Ki (Ki,app), inhibition of human pKal enzyme activity
T4 construct: also called pKal; human pKal
Protocol: (§1) Apparent Inhibition constants (K_{i,app} values) were measured by pre-incubating enzyme and inhibitor solutions prior to initiating the reactions with substrate. Enzyme and inhibitor were pre-incubated for 2 hours at 30° C. in a 96-well plate by adding 10 μL of a 10× enzyme solution and 10 μL of 10× inhibitor solutions to 70 μL of reaction buffer. Reactions were initiated by the addition of 10 μL of a 10× concentrated stock of substrate, and were monitored at 30° C. in a fluorescence plate reader with the excitation and emission wavelengths set at 360 nm/460 nm, respectively. Kinetic data were acquired by the increase in fluorescence, and initial rates for each condition were plotted against the total inhibitor concentration. The data was fit to the following equation for tight binding inhibitors: […]

mouse plasma kallikrein [5] = molecular target: T5, mouse plasma kallikrein (mouse, UniProt P26262 20-638, limits assumed); assay: apparent Ki (Ki,app), inhibition of mouse pKal enzyme activity
T5 construct: also called mouse pKal
Protocol: as §1

[6] = molecular target: T6, pKal catalytic domain Mutant 1 (human, UniProt P03952 391-638, limits assumed); assay: apparent Ki (Ki,app), enzyme inhibition, pKal catalytic domain Mutant 1
T6 construct: domain: catalytic domain; Expressed in Pichia pastoris, purified by IMAC; not shown: His tag fusion
Protocol: as §1

[7] = molecular target: T7, pKal catalytic domain Mutant 2 (human, UniProt P03952 391-638, limits assumed); assay: apparent Ki (Ki,app), enzyme inhibition, pKal catalytic domain Mutant 2
T7 construct: domain: catalytic domain; Expressed in Pichia pastoris, purified by IMAC; not shown: His tag fusion
Protocol: as §1

[8] = molecular target: T8, wild type pKal catalytic domain (human, UniProt P03952 391-638, limits assumed); assay: apparent Ki (Ki,app), enzyme inhibition, wild type pKal catalytic domain
T8 construct: domain: catalytic domain; also called WT cat; Domain; not shown: His tag fusion
Protocol: as §1

[9] = molecular target: T9, human plasma kallikrein (full length, active) (human, UniProt P03952 20-390; P03952 391-638); assay: Ki,app: enzyme inhibition, fluorescent substrate, 2 h pre-incubation at 30 C, tight-binding fit
T9 construct: two disulfide linked polypeptides; also called Full length pKal; pKal
Protocol: as §1

[10] = molecular target: T10, wild type pKal catalytic domain (human, UniProt P03952 391-638, limits assumed); assay: as above
T10 construct: domain: catalytic domain; The expression in Pichia pastoris with a His tag and IMAC purification is told of the mutants; also called WT cat; Domain; not shown: His tag fusion
Protocol: as §1

[11] = molecular target: T11, pKal catalytic domain Mutant 1 (human, UniProt P03952 391-638, limits assumed); assay: as above
T11 construct: domain: catalytic domain; Expressed in Pichia pastoris, purified by IMAC; not shown: His tag fusion
Protocol: as §1

[12] = molecular target: T12, pKal catalytic domain Mutant 2 (human, UniProt P03952 391-638, limits assumed); assay: as above
T12 construct: domain: catalytic domain; Expressed in Pichia pastoris, purified by IMAC; not shown: His tag fusion
Protocol: as §1

human plasma kallikrein [13] = molecular target: T3, human plasma kallikrein; assay: Ki,app of IgG, enzyme inhibition of human pKal
human plasma kallikrein [14] = molecular target: T3, human plasma kallikrein; assay: Ki,app as an IgG, steady state enzyme kinetics, inhibition of human pKal
[15] = molecular target: T4, human plasma kallikrein (active form); assay: apparent Ki (Ki,app), inhibition of human pKal enzyme activity; remark: listed apart in the source
mouse plasma kallikrein [16] = molecular target: T5, mouse plasma kallikrein; assay: apparent Ki (Ki,app), inhibition of rodent pKal enzyme activity

T4 sequence (P03952 20-390, chain 1 of 2): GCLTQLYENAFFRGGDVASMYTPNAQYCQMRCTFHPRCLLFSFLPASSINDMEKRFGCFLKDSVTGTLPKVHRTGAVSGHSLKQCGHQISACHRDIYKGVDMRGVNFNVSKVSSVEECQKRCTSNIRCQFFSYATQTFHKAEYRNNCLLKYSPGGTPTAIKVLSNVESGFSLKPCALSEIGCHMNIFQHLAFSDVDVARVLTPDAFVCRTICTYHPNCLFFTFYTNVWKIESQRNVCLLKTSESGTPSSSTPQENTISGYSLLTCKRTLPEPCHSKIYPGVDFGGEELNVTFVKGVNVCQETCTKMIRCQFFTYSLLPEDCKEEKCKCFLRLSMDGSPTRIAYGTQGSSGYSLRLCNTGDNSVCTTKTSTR
T4 sequence (P03952 391-638, chain 2 of 2): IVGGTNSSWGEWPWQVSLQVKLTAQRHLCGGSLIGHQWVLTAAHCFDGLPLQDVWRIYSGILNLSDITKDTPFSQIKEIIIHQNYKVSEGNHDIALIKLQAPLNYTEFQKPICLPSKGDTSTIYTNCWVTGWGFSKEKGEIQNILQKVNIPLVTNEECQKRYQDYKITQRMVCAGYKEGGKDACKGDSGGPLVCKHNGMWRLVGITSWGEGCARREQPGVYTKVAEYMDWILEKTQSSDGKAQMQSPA
T9 sequence (P03952 20-390, chain 1 of 2): as the sequence (P03952 20-390, chain 1 of 2) above
T9 sequence (P03952 391-638, chain 2 of 2): as the sequence (P03952 391-638, chain 2 of 2) above

- Ki (mouse plasma kallikrein [1]): < 1 nM
- Ki (human plasma kallikrein [2]): 5.6 nM
B1: M160-G12 (IgG) (antibody, V domains shown)
VH: EVQLLESGGGLVQPGGSLRLSCAASGFTFSHYLMTWVRQAPGKGLEWVSYISPSGGHTIYADSVKGRFTISRDNSKNTLYLQMNSLRAEDTAVYYCARVARGIAARSRTSYFDYWGQGTLVTVSS
VL: DIQMTQSPSFLSASVGDRVTITCRASQGISSYLAWYQQKPGKAPKLLIYAASTLQSGVPSRFSGSGSGTEFTLTISSLQPEDFATYYCQQLNSYPLTFGGGTKVEIK
notes: Human IgG; also called R84-D02

- Ki (human plasma kallikrein [3]): 2 nM
B2: X60-D01 (antibody, V domains shown)
VH: B1 VH
VL: DIQMTQSPGTLSLSPGERATLSCRASQIVSSRYLAWYQQRPGQAPRLLIYGAASRATGIPDRFSGSGSGTDFTLTISSLQAEDFATYYCQQTYSSPFTFGQGTKMEIK
notes: Found by ROLIC light chain shuffling

- Ki [4]: 5 nM
- Ki (mouse plasma kallikrein [5]): 0.2 nM
B3: M160-G12 (antibody, V domains shown)
VH: B1 VH
VL: B1 VL
notes: also called R84-D02

- Ki (human plasma kallikrein [3]): 9 nM
B5: X63-G10 (antibody, V domains shown)
VH: B1 VH
VL: DIQMTQSPDSLSASVGDRVTITCRASQSISNYLNWYQQKPGKAPKLLIYAASSLQSGVPSRFSGSGSGTDFTLTISGLQPEDFASYYCQQSYTSPYTFVQGTKLEIKR
notes: as for B2

- Ki [4]: 0.79 nM
- Ki (mouse plasma kallikrein [5]): 800 nM
- Ki [6]: 0.23 nM
- Ki [7]: 0.1 nM
- Ki [8]: 0.16 nM
B7: M145-D11 (Fab, V domains shown)
VH: EVQLLESGGGLVQPGGSLRLSCAASGFTFSHYRMSWVRQAPGKGLEWVSSIYPSGGRTVYADSVKGRFTISRDNSKNTLYLQMNSLRAEDTAVYYCAKDKFEWRLLFRGIGNDAFDIWGQGTMVTVSS
VL: QSVLTQPPSVSVSPGQTASITCSGDKLGDKYTSWYQQRPGQSPVLVIYQDIKRPSGIPERFSGSNSGNTATLTISGTQAMDEADYYCQAWDSPNARVFGSGTKVTVL
notes: also called 559A-M145-D11 (sFab); 559A-M0145-D11

- Ki [9]: 0.79 nM
- Ki [10]: 0.16 nM
- Ki [11]: 0.23 nM
- Ki [12]: 0.1 nM
B8: M145-D11 (Fab, V domains shown)
VH: B7 VH
VL: B7 VL
notes: as for B7

- Ki [9]: 2.9 nM
- Ki [10]: 0.8 nM
- Ki [11]: 0.09 nM
- Ki [12]: 1.1 nM
B10: M35-G04 (antibody, V domains shown)
VH: EVQLLESGGGLVQPGGSLRLSCAASGFTFSYYHMSWVRQAPGKGLEWVSVISPSGGSTKYADSVKGRFTISRDNSKNTLYLQMNSLRAEDTAVYYCARGGSSDYAWGSYRRPYYFDYWGQGTLVTVSS
VL: DIQMTQSPATLSLSPGERATLSCRASQSVSSYLAWYQQKPGQAPRLLIYDASNRATGIPARFSGSGSGTDFTLTISSLEPEDFAVYYCQQRSNWPRGFTFGPGTKVDIK
notes: Only variable domains printed; also called 559A-M35-G04; 559A-M0035-G04

- Ki (human plasma kallikrein [13]): 0.1 nM
- Ki (human plasma kallikrein [14]): 0.1 nM
B11: X67-D03 (IgG) (antibody, V domains shown)
VH: EVQLLESGGGLVQPGGSLRLSCAASGFTFSAYSMIWVRQAPGKGLEWVSYIRPSGGRTTYADSVKGRFTISRDNSKNTLYLQMNSLRAEDTAVYYCARGGLLLWNRELKSNYFDYWGQGTLVTVSS
VL: DIQMTQSPSSLSAFVGDRVTITCRASQPIDNYLNWYHQKPGKAPKLLIYAASRLQSGVPSRLSGSGFGTDFTLTISSLQPEDFGNYYCQQSYTVPYTFGGGTKVEIR
notes: printed HC runs into CH1; also called 559A-X67-D03

- Ki (human plasma kallikrein [13]): 0.35 nM
- Ki (human plasma kallikrein [14]): 0.35 nM
B13: X67-G04 (IgG) (antibody, V domains shown)
VH: B11 VH with N105A
VL: B11 VL
notes: printed HC runs into CH1

The remaining lines, values behind:

B4: X64-F04 (antibody, V domains shown)
VH: B1 VH
VL: DIQMTQSPATLSLSPGERATLSCRASQIVSSNYLAWYQQKPGQAPRLLIYGASNRATGIPDRFSGSGSGTEFTLTISSLQSEDFAIYYCQQSFNIPYTFGQGTRVDIK
notes: as for B2
- Ki (human plasma kallikrein [3]): 1.9 nM

B6: X59-C07 (antibody, V domains shown)
VH: B1 VH
VL: DIQMTQSPSSLSASVGDRVTVTCRAGRSISTYVNWYQQKPGKAPKLLIYAASSLQSGVPSRFSGSRSGTDFTLTISSLQPEDFATYYCQQSQSTPYTFGQGTKLEVK
notes: as for B2
- Ki (human plasma kallikrein [3]): 6.1 nM

B9: M35-G04 (antibody, V domains shown)
VH: B10 VH
VL: B10 VL
notes: also called 559A-M35-G04; 559A-M0035-G04
- Ki [4]: 2.9 nM
- Ki (mouse plasma kallikrein [5]): 8 nM
- Ki [6]: 0.09 nM
- Ki [7]: 1.1 nM
- Ki [8]: 0.8 nM

B12: X67-D03 (antibody, V domains shown)
VH: B11 VH
VL: B11 VL
notes: Tested as IgG; Single point mutant (F to N in HC CDR3) of M142-H08; also called X67-D03 (IgG); 559A-X67-D03
- Ki [15]: 0.1 nM
- Ki (mouse plasma kallikrein [16]): 0.7 nM

B14: M6-D09 (antibody, V domains shown)
VH: EVQLLESGGGLVQPGGSLRLSCAASGFTFSFYYMVWVRQAPGKGLEWVSVIYPSGGITVYADSVKGRFTISRDNSKNTLYLQMNSLRAEDTAVYYCARDKWAVMPPYYYYAMDVWGQGTTVTVSS
VL: DIQMTQSPSSLSASVGDRVTITCRASQSIRNYLNWYQQKPGKAPNLLIYAASTLQSGVPARFSGSGSGTDFTLTISSLQPEDFATYYCQQLSGYPHTFGQGTKLEIK
notes: also called M06-D09; 559A-M06-D09
- Ki [4]: 5.9 nM
- Ki (mouse plasma kallikrein [5]): 3.9 nM
- Ki [6]: 3.4 nM
- Ki [7]: 13.5 nM
- Ki [8]: 2.5 nM

B15: M06-D09 (antibody, V domains shown)
VH: B14 VH
VL: B14 VL
notes: Only variable domains printed; also called M6-D09; 559A-M06-D09
- Ki [9]: 5.9 nM
- Ki [10]: 2.5 nM
- Ki [11]: 3.4 nM
- Ki [12]: 13.5 nM

B16: M29-D09 (Fab, V domains shown)
VH: EVQLLESGGGLVQPGGSLRLSCAASGFTFSWYTMVWVRQAPGKGLEWVSYIYPSGGATFYADSVKGRFTISRDNSKNTLYLQMNSLRAEDTAVYYCAMGSYDYIWGFYSDHWGQGTLVTVSS
VL: QSALTQPPTVSVSPGQTARITCSGNKLGDKYVAWYQQKPGQSPMLVIYQDTKRPSRVSERFSGSNSANTATLSISGTQALDEADYYCQAWDSSIVIFGGGTRLTVL
notes: also called 559A-M29-D09 (sFab); 559A-M0029-D09
- Ki [4]: 0.7 nM
- Ki [6]: 0.27 nM
- Ki [7]: 0.34 nM
- Ki [8]: 0.24 nM
